Results as given in PMC5714956, “Insight into the molecular recognition mechanism of the coactivator NCoA1 by STAT6” (Scientific Reports, 2017).

B1: STAT6 peptide 783-814 (fragment of the STAT6 transactivation domain with the LXXLL motif) (peptide, UniProt P42226 783-814, looked up)
chain: GTWIGEDIFPPLLPPTEQDLTKLLLEGQGESG
notes: The His7-tag probably left with the Z-tag (the Z-tag was removed on Ni-NTA resin after TEV cleavage); Used unlabeled or 15N / 15N-13C labeled in the NMR samples; source: produced recombinantly, purified (TEV cleavage, Ni-NTA, reversed phase HPLC); not shown: Z-tag, N-terminal, cleaved

What was measured:
[1] = target: NCoA1 (Homo sapiens) (UniProt Q15788); experiment: fluorescence polarization; conditions: cited from earlier work
[2] = target: NCoA1 (Homo sapiens) (UniProt Q15788); experiment: competitive fluorescence polarization; conditions: cited from earlier work
[3] = target: T1, NCoA1 PAS-B domain 257-385 (nuclear coactivator 1) (UniProt Q15788 257-385); experiment: crystal structure; X-ray structure of the NCoA-1 PAS-B domain in complex with the STAT6 783-814 peptide (PDB 5NWX); peptide added in 1.5 fold molar excess, complex purified by gel filtration (Superdex 75); conditions: both partners purified
T1 construct: Used unlabeled or 15N / 15N-13C labeled in the NMR samples
T1 sequence (looked up): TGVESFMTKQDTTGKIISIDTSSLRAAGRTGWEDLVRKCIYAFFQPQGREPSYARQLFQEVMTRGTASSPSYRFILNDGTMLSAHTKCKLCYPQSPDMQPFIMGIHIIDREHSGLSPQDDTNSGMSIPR

Chain of NCoA1 (Homo sapiens) (Q15788 2-1441): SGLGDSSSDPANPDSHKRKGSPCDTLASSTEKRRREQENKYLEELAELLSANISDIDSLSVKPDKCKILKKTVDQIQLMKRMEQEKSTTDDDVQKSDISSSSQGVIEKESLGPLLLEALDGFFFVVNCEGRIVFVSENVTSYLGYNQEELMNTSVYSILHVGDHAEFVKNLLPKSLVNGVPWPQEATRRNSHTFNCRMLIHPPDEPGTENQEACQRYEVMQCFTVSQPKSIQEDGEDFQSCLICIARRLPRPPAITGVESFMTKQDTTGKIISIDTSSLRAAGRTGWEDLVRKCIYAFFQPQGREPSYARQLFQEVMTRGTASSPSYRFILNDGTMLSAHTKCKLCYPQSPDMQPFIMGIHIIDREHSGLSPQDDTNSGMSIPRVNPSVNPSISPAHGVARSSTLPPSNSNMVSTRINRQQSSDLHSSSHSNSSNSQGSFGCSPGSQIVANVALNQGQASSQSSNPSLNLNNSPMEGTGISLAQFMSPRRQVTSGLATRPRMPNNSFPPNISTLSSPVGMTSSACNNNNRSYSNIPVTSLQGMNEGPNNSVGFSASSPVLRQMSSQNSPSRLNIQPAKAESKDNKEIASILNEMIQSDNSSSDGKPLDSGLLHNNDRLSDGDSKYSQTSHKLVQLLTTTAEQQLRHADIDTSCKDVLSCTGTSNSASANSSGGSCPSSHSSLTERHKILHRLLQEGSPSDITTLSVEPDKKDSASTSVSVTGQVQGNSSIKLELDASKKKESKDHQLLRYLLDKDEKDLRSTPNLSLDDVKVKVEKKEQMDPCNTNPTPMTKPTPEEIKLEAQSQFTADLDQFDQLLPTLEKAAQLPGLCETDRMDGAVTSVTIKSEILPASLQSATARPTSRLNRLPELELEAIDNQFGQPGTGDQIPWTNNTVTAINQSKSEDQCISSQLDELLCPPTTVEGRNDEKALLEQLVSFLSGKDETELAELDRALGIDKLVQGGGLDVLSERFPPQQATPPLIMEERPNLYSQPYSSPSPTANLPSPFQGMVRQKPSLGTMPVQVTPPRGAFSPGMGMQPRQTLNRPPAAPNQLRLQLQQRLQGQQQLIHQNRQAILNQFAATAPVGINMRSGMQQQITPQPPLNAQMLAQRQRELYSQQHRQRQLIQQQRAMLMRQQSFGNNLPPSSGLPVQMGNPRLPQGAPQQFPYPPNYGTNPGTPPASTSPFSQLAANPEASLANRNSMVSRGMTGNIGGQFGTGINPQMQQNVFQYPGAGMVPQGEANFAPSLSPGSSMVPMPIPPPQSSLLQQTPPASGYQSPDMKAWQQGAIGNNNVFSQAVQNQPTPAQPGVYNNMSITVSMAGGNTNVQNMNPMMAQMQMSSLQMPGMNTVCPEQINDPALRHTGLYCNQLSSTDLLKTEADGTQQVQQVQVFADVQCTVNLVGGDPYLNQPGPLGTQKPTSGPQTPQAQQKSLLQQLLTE

Molecule | Kd [1] [nM] | Ki [2] [nM] | binding result [3]
STAT6 794-814 (from UniProt P42226) | 320 | 260 | 
STAT6 783-814 (from UniProt P42226) | 40 | 40 | 
B1 |  |  | binds
